According to the RNAGym collection of RNA variant scans (doi:10.1073/pnas.2313332121):

B1: TPR t1 (parent)
chain: GACCAAUCUGCCCUCAGAGCUCGAGAACAUCUUCGGAUGCAGAGGAGGCAGGCUUCGGUGGCGCGAUAGCGCCAACGUCCUCAACCUCCAAUGCAUCCCACCACAUGAUGAUGCCUGAAGAGCCUUGGUUUUUUG

Variants of: B1
Assay: polymerase ribozyme fitness, log enrichment relative to wild type (log ratio); higher = more active; in vitro selection for triplet polymerase activity
How it was run: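 Fitness is a logarithmic measure of how a genotype enriched relative to the wild type, with replicate averages weighted by inverse variance. The logarithm uses base 2, and enrichment came from Illumina sequencing of input and output libraries. Those libraries were PCR-built, transcribed mutants of each subunit of a heterodimeric triplet polymerase ribozyme, passed through one triplicate in vitro selection round that included frozen incubation at −7 °C, gel excision of extended constructs and streptavidin-bead capture. Genotypes were kept only if they had ≥10 input reads and ≥1 read per output.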

| Variant | polymerase ribozyme fitness (log ratio) |
| --- | --- |
| GACCAAUCUGCCCUCAGAGCUCGAGAACAUCUUCGGAUGCAGAGGAGGCAAACUUCGGUGGCGCGAUAGCGCCAACGUCCUCAACCUCCAAUGCAUCCCAUCACAUGAUGAUGCCUGAAGAGCCUUGGUUUUUUG [G51A G52A C101U] | -3.92 |
| GCCCAAUCUGCCCUCAGAGCUCGAGAACAUCUUCGGAUGCAGAGGAGGCAGGCUUCGGUGGCGCGAUAGCGCCAACGUCCUCAACCUCCAAUGCAUCCCACCACAUGAUGAUGCCUGAAGAGCCUUGUUUUUUUG [A2C G128U] | -2.55 |
| GACGAAUCUGCCCUCAGAGCUCGAGAACAUCUUCGGAUGCAGAGGAGGCAGGCUUCGGUGGCGCGAUAGCGCCAACGUCCUCAACCUCCAAUGCAUACCACCACAUGAUGAUGCCUGAAGAGCCUUGGUUUUUUG [C4G C97A] | -5.92 |
| GACCAAUCUGCCCUCAGAGCUCGAGAACAUCUUUGGAUGCAGAGGAGUCAGGCUUCGGUGGCGCGAUAGCGCCAACGUCCUCAACCUCCAAUGCAUCCCACCACAUGAUGAUGCCUGAAGAGCCUUGGUUUUUUG [C34U G48U] | -4.63 |
| GACCAAUCUGCCUUCAGAGCUCGAGAACAGCUUCGGAUGCAGAGGAGGCAGGCUGCGGUGGCGCGAUAGCGCCAACGUCCUCAACCUCCAAUGCAUCCCACCACAUGAUGUUGCCUGAAGAGCCUUGGUUUUUUG [C13U U30G U55G A111U] | -4.31 |
| GACCAAUCUGCCAUCAGAGCUCGAGGACAUCUUCGGAUGCAGAGGAGGCAGGGUUCGGUGGCGCGAUAGCGCCAACGUCCUCAUCCUCCGAUGCAUCCCACCACAUGAUGAUGCCUGAAGAGCCUUGGUUUUUUG [C13A A26G C53G A84U A90G] | -4.94 |
| GACCAAUCUGCCCUCAGAGCUCGAGAGCAUCUUCGGAUGCAGAGGAGGCAGGCUUCGGUGGCGCGAUAGCGCCAACGUCCUCAACCUUCAAAGCAUCCCACCAAAUGACGAUGCCUGAGGAGCCUUGGUUUUAUG [A27G C88U U92A C104A U109C A119G U133A] | -7.24 |
| GACCAAUCUGCCCUCAGAGCUCGAGAACAUCUUCGCAUGCAGAGGAGGCAGGCUUCGGUGGCGCGAUAGCGCCAACGUCCUCAACCUCCAAUGCAUCCCACCACAUGAUGAUGCCUGAACAGCCUUGGUUUUUUG [G36C G120C] | 0.237 |
| GACCAAUCUGCCCUCAGAGCUCGAGAACAUCUUCGGAUUCAGAGGAGGCAGGCUACGGUGGCGCGAUAGCACCAACGUCCUCAACCUCCAAUGGAUCCCACAACAUGAUGAUUCCUGAAGAGCCUUGGUUUUUUG [G39U U55A G71A C94G C102A G113U] | -5.82 |
| GACCAAUCUGCCCUCAGAGCUCGAGAACAUCUUCGAAUGCACAGGAGGCAGGCUUCGGUGGCGCGAUAGCGCCAACGUCCUCAUCCUCCAAUGCAUCCCACCACAAGAUCAUGCCUGAAGAGUCUUGAUUUUUUG [G36A G42C A84U U106A G110C C123U G128A] | -7.57 |
| GACCAAUCUGCCCGCAGAGCUCGAGAACAUCUUCGGAUGCAGAGGAGGCUGGCUUCGGUGCCGCGAUAGCGCCAACGUCCUCAACAUCCAAUGCAUCCCACCACAUGAUGAUGCCUGAAGAGCCUUGGUUUUUUG [U14G A50U G61C C86A] | -4.54 |
| GACCAAUUUGCCCACAGAGCUCGAGAACAUCUUCGGAUGCAGAGGUGGCAGGCUUUGGUGGCGCGAUAGCGCCAACGUCCUCAACCUCCAAUGCAUCCCACCACAUGAUGAUGCCUGAAGAGCCUUGGUUUUUUG [C8U U14A A46U C56U] | -1.92 |
| GACCAAUCAGCCCUCAGAGCUCGAGAACAUCUUCGGAUGCAGAGGAGGCAGGCUUCGGUGGCGCGAUAGCGCCAACGUCCUCAACCUCCAAUGCAUCCCACCACAUGAUGAUGCCUGAAGAACCUUGGUUUUUUG [U9A G122A] | 0.926 |
| GACCAAUCUGGCCUCAGAGCUCGAGAACAUCUUCGGAUGCAGAGGAGGCAGGCUUCGGUGGCGCGGUAGCGCCAACGUCCUCAACCUCCAAUGCAUCCCACCACAAGAUGAUGCCUGAAGAGCCUUGGUUUUUUG [C11G A66G U106A] | -0.837 |
| GACCAAUCUGCCCUCAGAGCUCGAGAACAUCUUCGGAUGCAGAGGAGGCAGGCUUCGGUGGCGCGAUAGCGCCAACGUCCUCAACCUCCAAUGCGUUCCACCACUUGAUGAUGCCUGAAGAUCCUUGGUUUUUUG [A95G C97U A105U G122U] | -4.71 |
| GACCAAUCUGCUCUCAGAGCUCGAGAACAUCUUCGGAUGCAGAGGAGGCAGGCUUCGGUGUCGCGAUAGCGCCAACGUCCUCAACCUCCAAUGCAUCCCACCACGUGAUGAUGCCUGAAGAGCCUUGGUUUUUUG [C12U G61U A105G] | -1.62 |
| GACCAAUCUUCCCUCAGAGCUCGAGAACAUCUUCGGAUGCAGAGGAGGCAGGCUUCGGUGGCGCGAUAGCGCCAACGUCCUCAACCUCAAAUGCAUCCCACCACAUGAUGAUGACUGAAGAGCCUUGGUUUUUUG [G10U C89A C114A] | -2.81 |
| GACCAAUCUUCCCUCAGAGCUCGAGAACAUCUUCGGAUGCAGAGGAGGCAGGCUUCGGUGGCGCGAUAGCGCCAACGUCCUCAACCUCCAAUGCAUCCCACCACAUGAUGAAGUCUGAAGAGCCUUGGUUUUUUG [G10U U112A C114U] | -1.01 |
| GACCAAUCUGCCCUCAGAGCUCGAGAACAUCUUCGGAUGCAGAGGAGGCAGGCUUCGGUGGCGCGAUAGCGGCAACGUCCUCAACCUCCAAUGCAUCCCACCACAUGAUGAUGCCUGAAGAGCCUUGGUUUUUUC [C72G G135C] | -1.17 |
| GACCAAUCUGCUCUCAUAGCUCGAGAACAUCUUCGGAUGCAGAGGAGGCAGGCUUCGGUGGCGCGAUAGCGCCAACGUCCUCAACCUCCAAUGCAUCCCACCACAUGAUGAUGCCUGAAGAGCCUUGGUUUUUUG [C12U G17U] | -0.854 |
| GACCAAUCUGCCCUCAGCGCUCGAGAACAUCUUCGGAUGCAGUGGAGGCAGGCUUCGGUGGCGCGAUAGCGCCAACGUCCUCAACCUCCAAUGCAUCCCACCACAUGAUGAUGCCUGAAGGGCCUUGGUUUUUUG [A18C A43U A121G] | 0.81 |

| Variant | polymerase ribozyme fitness (log ratio) |
| --- | --- |
| GACCAAUCUGUCCUCAGAGCUCGAGAACAUCUUCGGAUGCGGAGGAGGCAGGCUUCGGUGGCGCGAUAGCGCCAACGUCCUCAACCUCCAAUGCAUCCCACCAAAUGAUGAUGCCUGAAGAGUCCUGGUUUUUUG [C11U A41G C104A C123U U125C] | -1.19 |
| GACCAAUCUGUCCUCAGAGCUCGAGAACAUCUUCGGAUGCAGAGGUGGCAGGCUUCGGUGGCGCGAUAGCGCCAACGUCCUCAACGUCCAAUGCAUCCCACCAUAUGAUGAUGCCUGAAGAGCCUUGGUUUUUUG [C11U A46U C86G C104U] | -2.24 |
| GACCAAUCUGCCCUCAGAGCUCGAGAACAUCUUCGGAUGCAGAGGAGGCAGGCUUCGGUGGCACGAUAGCGCCAACGUCCUCAACCUCCAAUGCAUCCCAACACAUGAUGAUGCCUGAAGAGCCUUGGUUUUUUG [G63A C101A] | -3.39 |
| GACCAAUCUGCCCUCAGAGCUCGAGAACAUCUUCGGAUGCAGAGGAGGCAGGCUUCGGUGGCGCGAUUGCGCCAACGUCCUCAACCUCCGAUGCAUCCCAGCACAUGAUGAUACCUCAAGAGCCUUGGUUUUUUG [A68U A90G C101G G113A G117C] | -5.75 |
| GACCAAUCUGCCCUCAGAGCUCGAGAACAUCUUCGGAUGCAGAGGAGGCUGGCUUCGGUGGCGCGAUAGCGCCAACGUCCUCAACCUCCAAUGCAUCCCACCACAUGAUGAUGCCUGAUGAGCCUUGGUUUUUUG [A50U A119U] | -1.31 |
| GACCAAUCUGCCCUUAGAGCUCGAGAACAUCUUCGGAUGCAGAGGAGGCAGGCUUCGGUGGCGCGAUACCGCCAACGUCCUCAACCUCCAAUGCAUCCCACCACAUGAUGAUGCCUGAAGAGCCUUGGUUUUUUG [C15U G69C] | -2.64 |
| GACCAAUCUGCCCUCAGAGCUCGAGAGCAUCUUCGGAUGCAGAGUAGGCAGGCUUCGGUGGCGCGAUAGCGCCAACGUCCUCAACCUCCAAUGCAGCCCACCACAUGAUGAUGCCUGAAUAGCCUUGGUUUUUUG [A27G G45U U96G G120U] | -3.04 |
| GACCAAUCUGCCCUCAGAGCUCGAGAACAUCUUCGGGUGCAGAGGAGGCAGGCUUCGGUGGCGCGAUAGCGACAACGUCCUCAGCCUCCAAUGCAUCCCACCACAUGAUGAUGCCUGAAGAGCCUUGGUUUUUUG [A37G C72A A84G] | -1.24 |
| GACCAAUCUGCCCUCAGAGCUCGAGAACAUCUUCGGAUGCAGAGGAGACAGGCUUCGGUGGCGCGAUAGCGCCAACGUCCUCAACCUCCAAUGCAUCCCACCACAUGAUGAUGCCUGAAGAGCCUUGGUUUUGUG [G48A U133G] | -1.38 |
| GACCAAUCUGCCCUCAGAGCUCGAGAACAUCUUCGGAUGCAGAGGAGGCAGGCUUUGGUGGCGCGAUAGCGCCAACGUCCUCAACCUCCAAUGCAUCCCACCACAUGAUGAUGCCUGAAGAGCCUUGGUUUUUUG [C56U] | 0.0734 |
| GACCAAUCUGCCCUCAGAGCUCGAGAACAACUUCGGAUGCAGAGGAGGCAGGCUUCGGUGGCGCGAUAGCGCCAACGUCCUCAACCUCCAAUGCAUCCCACCAAAUGAUGAUGCCUGAAGAGCCUUGGUUUUUUG [U30A C104A] | -6.42 |
| GACCAAUCUGCCCUCAGAGCUCGAGAACAUCUUCGGAUGCAGAGGAGGCAGGCUUCGGUGGCGCGAUAGCACCAACGUCCUCAACCUCCAAUGUAUCCCACCACAUGAUGAUGCCUGAAGAGCCUUGGUUUUUUG [G71A C94U] | -1.55 |
| GACCAAUCUGCCCUCAGAGCUCGAGAACAUCUUCGGAUGCAGAGGAGGCAGGCUUCGGUGGCGCGAUAGCGCCAACGUCAUUUACCUCCAAUGCAUCCCAGCACAUGAUGAUGCCUGAAGAGCCUUGGUUUUUUG [C80A C82U A83U C101G] | -5.83 |
| GACCAAUCUGCCCUCAGAGCUCGAGAACAUCUUCGGAUGCAUAGGAGGCAGACUUCGGUGGCGCGAUAGCGCCAGCGUCCUCAACCUCCAAUGCAUCCCAUCACAUGAUGAUGCCUGAAGAGCCUUGGUUUUUUG [G42U G52A A75G C101U] | -0.635 |
| GACCAAUCUGCCCUUAGAGCUCGAGAACAUCUUCGGAUGCAGAGGAGGCCGGCUUCGGUGGCGCGAUAGCGCCAACGUCCUCAACCUCCAAUGCAUCCCACCACAUGAUGAUGCCUGAAGAGCCUUGGUUUUUUG [C15U A50C] | -1.84 |
| GACCAAUCUGCCCUCAGAGCUCGAGAACAUCUUCGGAUGCAGAGGAGGCAGGCUUCGGUGGCGCGAUAGCGCCAACGUCCUCAACCUCCAAUGCAUCCCACCACGAGAUGAUGCCUGAAUAGCCUUGGUUUUCUG [A105G U106A G120U U133C] | 0.414 |
| GACCAAUCAGCCCGCAGAGCUCGAGAACAUCUUCGGAUGCAGAGGAGGCAGGCUUCGGUGGCGCGAUAGCGCGAACGUCCUCAACCUCCAAUGCAUCCCACCACAUGAUGAUGCCUCAAGAGCCUUGGUUUUUUG [U9A U14G C73G G117C] | -1.75 |
| GACCAAUCUGCCCUCGGAGCUCGAGAACAUCUUCGGAUGCAGAGGAGGCAGGCUUCGGUGGCGCGAUAGCGCCAACGUCCUCAACCUCCAAUGCAUCCCACCACAUGAUGAUACCUGAAGAGCCUUGGUUUUUUG [A16G G113A] | -2.04 |
| GACCAAUCUGCCCUCAGAGCUCGAGAACAUCUUCGGAUGAAGAGGAGGCAGGCUUCGGUGGCGCGAUACCGCCAACGUCCUCAACCUCCAAUGCAUCCCACCACAUGAUGAUGCCUGAAGAGCCUUGGUCUUUUG [C40A G69C U130C] | -2.11 |
| GACCAAUCUGCCCUCAGAGCUCGAGAACAUCUUCGGAUGCAGAGGAGGGAGGCUUCGGUGGCGCGAUAGCGCCAACGUCCUCAACCUCCAAUGCAUCCCACCACAUGAUGAUGCAUGAAGAGCCUUGGUUUUUUG [C49G C115A] | -1.51 |
| GACCAAUCAGCCCUCAGAGCUCGAGAACAUCUUCGCAUGCAGAGGAGGCAGGCUUCGGUGGCGCGAUAGCGCCAACGUCCUCAACCUCCAAUGCAUCCCAUCACAUGAUGAUGCCUGAAGAGCCUUGGUUUUUUG [U9A G36C C101U] | -0.0357 |
